Experimental data as given in PMC8091058, “Distinct intramolecular interactions regulate autoinhibition of vinculin binding in αT-catenin and αE-catenin” (The Journal of Biological Chemistry, 2021).

Legend:
Assay in all cases: ITC; vinculin D1 injected into αT-catenin or αE-catenin fragment (or αT-catenin head–β-catenin complex) in the cell; 25 °C; 20 mM Hepes pH 8.0, 150 mM NaCl, 1 mM TCEP
Conditions in all cases: both partners purified
[1] = biological target: T1, αT-catenin head (1–659)–β-catenin complex (Mus musculus, UniProt Q65CL1 1-659; Q02248 1-781)
T1 construct: αT-catenin, Mus musculus, head region, aa 1-659; β-catenin, Mus musculus, full length; also called αT-catenin head–β-catenin complex; source: E. coli BL21-Gold, purified; purified complex
T1 sequence (looked up) 1: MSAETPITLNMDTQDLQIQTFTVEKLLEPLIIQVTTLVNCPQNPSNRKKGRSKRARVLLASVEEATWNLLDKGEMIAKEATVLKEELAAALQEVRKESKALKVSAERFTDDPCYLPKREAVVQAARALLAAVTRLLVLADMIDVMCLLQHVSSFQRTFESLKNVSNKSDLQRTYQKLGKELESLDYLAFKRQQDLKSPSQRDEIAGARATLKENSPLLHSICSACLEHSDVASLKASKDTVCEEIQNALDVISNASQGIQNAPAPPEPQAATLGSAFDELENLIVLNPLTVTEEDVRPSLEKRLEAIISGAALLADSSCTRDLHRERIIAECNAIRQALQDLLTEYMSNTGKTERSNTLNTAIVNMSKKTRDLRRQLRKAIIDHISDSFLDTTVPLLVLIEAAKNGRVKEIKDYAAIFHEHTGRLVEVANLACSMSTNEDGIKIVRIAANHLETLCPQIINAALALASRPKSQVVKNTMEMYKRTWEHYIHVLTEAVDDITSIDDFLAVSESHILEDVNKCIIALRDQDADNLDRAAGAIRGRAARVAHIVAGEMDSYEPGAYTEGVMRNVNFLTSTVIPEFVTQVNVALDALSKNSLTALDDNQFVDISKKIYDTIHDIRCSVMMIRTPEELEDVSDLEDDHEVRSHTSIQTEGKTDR
T1 sequence (looked up) 2: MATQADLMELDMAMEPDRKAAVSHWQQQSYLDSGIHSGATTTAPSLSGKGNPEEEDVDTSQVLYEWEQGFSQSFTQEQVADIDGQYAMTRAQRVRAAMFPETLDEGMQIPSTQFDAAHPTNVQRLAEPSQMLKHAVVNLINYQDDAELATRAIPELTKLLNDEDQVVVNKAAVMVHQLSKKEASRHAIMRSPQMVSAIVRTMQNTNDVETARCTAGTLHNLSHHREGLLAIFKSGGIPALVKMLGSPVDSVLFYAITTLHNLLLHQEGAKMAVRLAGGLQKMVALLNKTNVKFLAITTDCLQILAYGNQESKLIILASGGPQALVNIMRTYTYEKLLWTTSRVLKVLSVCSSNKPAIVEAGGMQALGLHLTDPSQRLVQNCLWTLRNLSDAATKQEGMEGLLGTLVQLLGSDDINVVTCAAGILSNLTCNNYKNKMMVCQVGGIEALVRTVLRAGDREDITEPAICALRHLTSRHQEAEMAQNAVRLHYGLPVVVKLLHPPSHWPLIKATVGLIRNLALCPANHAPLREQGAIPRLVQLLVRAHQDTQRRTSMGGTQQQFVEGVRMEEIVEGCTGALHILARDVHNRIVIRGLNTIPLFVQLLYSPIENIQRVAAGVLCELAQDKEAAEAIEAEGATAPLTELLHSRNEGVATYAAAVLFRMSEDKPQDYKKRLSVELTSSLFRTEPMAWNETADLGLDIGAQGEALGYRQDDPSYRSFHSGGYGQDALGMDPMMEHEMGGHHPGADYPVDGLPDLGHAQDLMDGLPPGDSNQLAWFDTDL

[2] = biological target: T2, αT-catenin head region (aa 1–659) (Mus musculus, UniProt Q65CL1 1-659)
T2 construct: αT-catenin, Mus musculus, head region (N- and M-domains), aa 1-659; in pGEX-TEV; also called αT-catenin head (1–659); αT-catenin N1-M3 (aa 1–659); source: E. coli BL21-Gold, purified (glutathione-agarose, TEV cleavage, Mono Q or Mono S, S200)
T2 sequence (looked up): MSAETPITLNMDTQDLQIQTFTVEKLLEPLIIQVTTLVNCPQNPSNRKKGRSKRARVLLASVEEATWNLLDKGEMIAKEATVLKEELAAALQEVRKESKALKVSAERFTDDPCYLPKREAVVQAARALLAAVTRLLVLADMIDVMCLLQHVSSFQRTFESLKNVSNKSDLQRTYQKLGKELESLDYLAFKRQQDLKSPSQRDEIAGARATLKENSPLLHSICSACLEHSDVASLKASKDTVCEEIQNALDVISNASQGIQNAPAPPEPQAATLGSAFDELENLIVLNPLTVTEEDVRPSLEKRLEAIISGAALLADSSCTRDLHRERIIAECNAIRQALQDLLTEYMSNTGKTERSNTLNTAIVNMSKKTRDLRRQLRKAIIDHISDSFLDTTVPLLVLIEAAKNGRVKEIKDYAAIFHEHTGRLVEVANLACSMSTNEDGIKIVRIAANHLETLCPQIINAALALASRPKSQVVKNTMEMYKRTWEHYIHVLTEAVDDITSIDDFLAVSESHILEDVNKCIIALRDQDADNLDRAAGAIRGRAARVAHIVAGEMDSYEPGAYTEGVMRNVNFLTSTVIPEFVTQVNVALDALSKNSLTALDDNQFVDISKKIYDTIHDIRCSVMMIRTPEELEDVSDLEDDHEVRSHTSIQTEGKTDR

[3] = biological target: T3, αE-catenin M1-M3 (aa 273–651) (Mus musculus, UniProt P26231 273-651)
T3 construct: αE-catenin, Mus musculus, M1-M3, aa 273-651; in pGEX-TEV; also called αE-catenin M1-M3 (273–651); source: E. coli BL21-Gold, purified (glutathione-agarose, TEV cleavage, Mono Q or Mono S, S200)
T3 sequence (looked up): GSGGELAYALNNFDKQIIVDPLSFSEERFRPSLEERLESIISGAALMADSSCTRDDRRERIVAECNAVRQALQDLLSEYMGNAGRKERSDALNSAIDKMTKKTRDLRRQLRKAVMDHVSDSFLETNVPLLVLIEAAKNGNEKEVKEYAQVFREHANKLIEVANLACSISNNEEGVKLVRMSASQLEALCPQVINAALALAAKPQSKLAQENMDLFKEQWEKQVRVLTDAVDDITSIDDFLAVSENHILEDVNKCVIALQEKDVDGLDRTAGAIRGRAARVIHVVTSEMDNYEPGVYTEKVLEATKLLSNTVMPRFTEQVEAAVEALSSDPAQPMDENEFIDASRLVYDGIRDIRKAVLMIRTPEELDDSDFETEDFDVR

[4] = biological target: T4, αE-catenin M1-M2 (aa 273–510) (Mus musculus, UniProt P26231 273-510)
T4 construct: αE-catenin, Mus musculus, M1-M2, aa 273-510; in pGEX-TEV; also called αE-catenin M1-M2 (273–510); source: E. coli BL21-Gold, purified (glutathione-agarose, TEV cleavage, Mono Q or Mono S, S200)
T4 sequence (looked up): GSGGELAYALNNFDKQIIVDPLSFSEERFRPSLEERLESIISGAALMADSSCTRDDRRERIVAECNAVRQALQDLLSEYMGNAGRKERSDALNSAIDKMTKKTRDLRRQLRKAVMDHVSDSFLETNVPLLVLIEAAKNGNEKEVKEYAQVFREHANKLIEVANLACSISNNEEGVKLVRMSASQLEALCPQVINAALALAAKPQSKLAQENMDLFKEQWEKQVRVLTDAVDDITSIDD

B1: vinculin D1 (aa 1–259) (domain or fragment, UniProt P12003 1-259, looked up)
chain: MPVFHTRTIESILEPVAQQISHLVIMHEEGEVDGKAIPDLTAPVSAVQAAVSNLVRVGKETVQTTEDQILKRDMPPAFIKVENACTKLVRAAQMLQADPYSVPARDYLIDGSRGILSGTSDLLLTFDEAEVRKIIRVCKGILEYLTVAEVVETMEDLVTYTKNLGPGMTKMAKMIDERQQELTHQEHRVMLVNSMNTVKELLPVLISAMKIFVTTKNTKSQGIEEALKNRNFTVEKMSAEINEIIRVLQLTSWDEDAWA
notes: vinculin D1 fragment, aa 1-259, the first 2 four-helix bundles; in pGEX-TEV; also called vinculin aa 1 to 259 (D1); vinculin N-terminus; source: E. coli BL21-Gold, purified (glutathione-agarose, TEV cleavage, Mono Q or Mono S, S200)
Kd [1]: 2.77 ± 0.875 µM | dH [1]: 4.4 ± 0.6 kcal/mol | Kd [2]: 4.69 ± 2.74 µM | dH [2]: 2.3 ± 1.3 kcal/mol | Kd [3]: 10.4 ± 4.59 µM | dH [3]: 12.8 ± 5.2 kcal/mol | dH [4]: 8.7 ± 0.2 kcal/mol
